Earlier results as cited in patent US20050054617A1, “Use of potent, selective and non toxic c-kit inhibitors for treating mastocytosis” (priority 2001, published 2005).

System: systemic mastocytosis
Conditions: person, infiltration of bone marrow, skin and gastric mucosa; recurrence after four months

B1: INFγ: interferon used in the art for mastocytosis (protein, UniProt P01579 24-161, looked up)
Interferon gamma: QDPYVKEAENLKKYFNAGHSDVADNGTLFLGILKNWKEESDRKIMQSQIVSFYFKLFKNFKDDQSIQKSVETIKEDMNVKFFNSNKKKRDDFEKLTNYSVTDLNVQRKAIHELIQVMAELSPAAKTGKRKRSQMLFRG
- clinical outcome in systemic mastocytosis: improvement of the clinical situation and gastrointestinal and hematological signs
